{
  "source": "patent EP2801619A1",
  "about": "(Fondazione Edmund Mach, dated 2014)",
  "binders": {"B1": {"name": "CURVATURE THYLAKOID1A (CURT1A) of Arabidopsis thaliana, endogenous protein in thylakoid membranes (other)", "chain": "ASSEETSSIDTNELITDLKEKWDGLENKSTVLIYGGGAIVAVWLSSIVVGAINSVPLLPKVMELVGLGYTGWFVYRYLLFKSSRKELAEDIESLKKKIAGSE", "notes": "Thylakoid membrane protein as found in plant thylakoids; also called At4g01150"}},
  "key": {"[1]": {"molecular_target": "the molecule itself", "assay": "quantification of CURT1A crosslinking products from thylakoids of WT and CURT1A-cmyc overexpressors"}, "[2]": {"molecular_target": "B1", "assay": "2D-BN/SDS-PAGE of thylakoid multiprotein complexes (Fig. 5b)"}, "[3]": {"molecular_target": "the molecule itself", "assay": "chemical crosslinking (BS3) of thylakoid proteins, SDS-PAGE and immunoblot, WT against curt1 mutants"}},
  "data": [
    {"binder": "CURT1A with a C-terminal cmyc tag, expressed in curt1a-2 or WT plants (other, Coding region under the 35S promoter; also called CURT1A-cmyc; cmyc-tagged CURT1A; not shown: C-terminal cmyc tag from vector pPCV812deltaNotI-Lola) ASSEETSSIDTNELITDLKEKWDGLENKSTVLIYGGGAIVAVWLSSIVVGAINSVPLLPKVMELVGLGYTGWFVYRYLLFKSSRKELAEDIESLKKKIAGSE", "values": [
      {"measurement": "binding result", "setting": "[1]", "value": "binds"}
    ]},
    {"binder": "CURVATURE THYLAKOID1C (CURT1C) of Arabidopsis thaliana, endogenous protein in thylakoid membranes (other, Thylakoid membrane protein as found in plant thylakoids; also called At1g52220) ASGESSDSSTDLDVVSTIQNVWDKSEDRLGLIGLGFAGIVALWASLNLITAIDKLPVISSGFELVGILFSTWFTYRYLLFKPDRQELSKIVKKSVADILGQ", "values": [
      {"measurement": "binding result", "setting": "[2]", "value": "binds"}
    ]},
    {"binder": "B1", "values": [
      {"measurement": "binding result", "setting": "[3]", "value": "binds"}
    ]}
  ]
}
